Reference: the supplement of paper PMC9112550, “Optimization of the antimicrobial peptide Bac7 by deep mutational scanning” (BMC Biology, 2022)

What follows are sequences tested on Escherichia coli TOP10 (assay: shrunken log2 fold change of peptide-encoding DNA abundance (4.5 h post-induction vs induction); higher = less antimicrobial activity (less host growth inhibition)). Conditions: time post-induction: 4.5 h; library: site-saturation at positions 5, 18, 19, 20.
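Also: peptides expressed intracellularly from a pBAD plasmid library in pooled LB shake-flask culture, induced with 0.3% L-arabinose, DNA abundance read by NGS, three biological replicates, DESeq2 with apeglm shrinkage.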

| Sequence | shrunken log2 fold change |
| --- | --- |
| RRIRHRPPRLPRPRPRPWRGPRP | 0.115 |
| RRIRIRPPRLPRPRPRPIRYPRP | -0.125 |
| RRIRSRPPRLPRPRPRPTYLPRP | -0.399 |
| RRIRQRPPRLPRPRPRPQWMPRP | -0.494 |
| RRIRQRPPRLPRPRPRPVLNPRP | 2.89 |
| RRIRVRPPRLPRPRPRPFYFPRP | -0.493 |
| RRIRDRPPRLPRPRPRPRGLPRP | 0.825 |
| RRIRGRPPRLPRPRPRPLTFPRP | 0.077 |
| RRIRPRPPRLPRPRPRPDMHPRP | -0.042 |
| RRIRHRPPRLPRPRPRPRLCPRP | 0.0797 |
| RRIRARPPRLPRPRPRPLPRPRP | 0.768 |
| RRIRGRPPRLPRPRPRPPPKPRP | 1.7 |
| RRIRNRPPRLPRPRPRPEDYPRP | -0.133 |
| RRIRNRPPRLPRPRPRPMQRPRP | 0.00752 |
| RRIRVRPPRLPRPRPRPYVLPRP | -1.12 |
| RRIRWRPPRLPRPRPRPISIPRP | -0.234 |
| RRIRDRPPRLPRPRPRPKEMPRP | -0.00146 |
| RRIRSRPPRLPRPRPRPNCVPRP | 0.0124 |
| RRIRLRPPRLPRPRPRPYQMPRP | -0.188 |
| RRIRARPPRLPRPRPRPVQLPRP | 0.101 |
| RRIRIRPPRLPRPRPRPVCDPRP | -0.372 |
| RRIRFRPPRLPRPRPRPFKYPRP | -1.26 |
| RRIRQRPPRLPRPRPRPAFHPRP | -0.0711 |
| RRIRTRPPRLPRPRPRPNREPRP | 0.115 |
| RRIRCRPPRLPRPRPRPVGPPRP | 0.326 |

| Sequence | shrunken log2 fold change |
| --- | --- |
| RRIRFRPPRLPRPRPRPFDSPRP | -0.22 |
| RRIRYRPPRLPRPRPRPKHVPRP | -0.4 |
| RRIRRRPPRLPRPRPRPQGTPRP | 0.294 |
| RRIRRRPPRLPRPRPRPKDMPRP | -0.0599 |
| RRIRHRPPRLPRPRPRPMLRPRP | -0.0571 |
| RRIRSRPPRLPRPRPRPTAKPRP | 0.528 |
| RRIRTRPPRLPRPRPRPKQQPRP | -0.0149 |
| RRIRARPPRLPRPRPRPIPLPRP | 0.0456 |
| RRIRHRPPRLPRPRPRPCGKPRP | -0.00804 |
| RRIRPRPPRLPRPRPRPKCAPRP | 0.0543 |
| RRIRGRPPRLPRPRPRPGYKPRP | 0.191 |
| RRIRNRPPRLPRPRPRPGGAPRP | 0.283 |
| RRIRKRPPRLPRPRPRPIWMPRP | -0.0467 |
| RRIRCRPPRLPRPRPRPAANPRP | 0.0789 |
| RRIRERPPRLPRPRPRPYSCPRP | 0.0107 |
| RRIRARPPRLPRPRPRPCPHPRP | -0.329 |
| RRIRARPPRLPRPRPRPKKDPRP | 0.468 |
| RRIRFRPPRLPRPRPRPTKGPRP | -0.0144 |
| RRIRFRPPRLPRPRPRPDQHPRP | -0.34 |
| RRIRDRPPRLPRPRPRPKFFPRP | 0.136 |
| RRIRHRPPRLPRPRPRPFWFPRP | -0.382 |
| RRIRGRPPRLPRPRPRPKQVPRP | 0.541 |
| RRIRSRPPRLPRPRPRPLYMPRP | -1 |
| RRIRVRPPRLPRPRPRPGQEPRP | 0.0329 |
| RRIRMRPPRLPRPRPRPAGWPRP | 1.37 |

| Sequence | shrunken log2 fold change |
| --- | --- |
| RRIRQRPPRLPRPRPRPNKSPRP | -0.202 |
| RRIRCRPPRLPRPRPRPGIMPRP | -0.594 |
| RRIRERPPRLPRPRPRPVRVPRP | 0.247 |
| RRIRMRPPRLPRPRPRPVINPRP | -0.305 |
| RRIRNRPPRLPRPRPRPASSPRP | -0.317 |
| RRIRFRPPRLPRPRPRPVIDPRP | -0.225 |
| RRIRGRPPRLPRPRPRPRKFPRP | 0.399 |
| RRIRVRPPRLPRPRPRPIWRPRP | 0.207 |
| RRIRRRPPRLPRPRPRPCRWPRP | 0.11 |
| RRIRDRPPRLPRPRPRPSRSPRP | 0.0199 |
| RRIRWRPPRLPRPRPRPDAIPRP | -0.0199 |
| RRIRMRPPRLPRPRPRPQKVPRP | 0.238 |
| RRIRERPPRLPRPRPRPEGPPRP | 0.23 |
| RRIRVRPPRLPRPRPRPGWIPRP | 0.486 |
| RRIRDRPPRLPRPRPRPTYFPRP | -0.0127 |
| RRIRMRPPRLPRPRPRPCIMPRP | -0.533 |
| RRIRIRPPRLPRPRPRPGCLPRP | 1.56 |
| RRIRPRPPRLPRPRPRPGRCPRP | 0.442 |
| RRIRDRPPRLPRPRPRPTILPRP | 0.242 |
| RRIRYRPPRLPRPRPRPNYMPRP | -0.357 |
| RRIRRRPPRLPRPRPRPVHRPRP | -0.0888 |
| RRIRMRPPRLPRPRPRPNMDPRP | 0.0442 |
| RRIRKRPPRLPRPRPRPIMLPRP | 0.0564 |
| RRIRERPPRLPRPRPRPPMIPRP | -0.0526 |
| RRIRRRPPRLPRPRPRPFQFPRP | -0.0742 |
